Consider one substance from PMC4927293.

The assay has as its target heat-aggregated GFP.

Turning to “Hsp104 D484K (from UniProt P31539 1-908) (enzyme)”, the apparent KM for aggregated GFP from initial rates of GFP disaggregation by Hsp104 D484K (0.06 uM, 10 mM ATP): fold gain of affinity with Ssa1 (2 uM) and Ydj1 (0.5 uM) was over 25 fold; the apparent KM for aggregated GFP from initial rates of GFP disaggregation by Hsp104 D484K (0.06 uM, 10 mM ATP): fold increase of the apparent KM with 1 mM ADP was found to be 2 fold.
